In patent publication US20200087347 (published 2020):
Read-outs that look alike come from different tables or passages of the source. Side-chain parts run from the residue outwards. [ ]: non-standard residue; d: D form. N‑Me‑Lys‑pentyne = N-methyl-lysine carrying a pentyne (alkyne) group; Pro‑4‑NH‑hexyne = not defined here; dNMeF = CN[C@H](Cc1ccccc1)C(=O)O; NMeK = CN[C@@H](CCCCN)C(=O)O; Ahx = NCCCCCC(=O)O; BDPFL = dye

T1: integrin αvβ6 (human, UniProt P06756)
T1 chain 1: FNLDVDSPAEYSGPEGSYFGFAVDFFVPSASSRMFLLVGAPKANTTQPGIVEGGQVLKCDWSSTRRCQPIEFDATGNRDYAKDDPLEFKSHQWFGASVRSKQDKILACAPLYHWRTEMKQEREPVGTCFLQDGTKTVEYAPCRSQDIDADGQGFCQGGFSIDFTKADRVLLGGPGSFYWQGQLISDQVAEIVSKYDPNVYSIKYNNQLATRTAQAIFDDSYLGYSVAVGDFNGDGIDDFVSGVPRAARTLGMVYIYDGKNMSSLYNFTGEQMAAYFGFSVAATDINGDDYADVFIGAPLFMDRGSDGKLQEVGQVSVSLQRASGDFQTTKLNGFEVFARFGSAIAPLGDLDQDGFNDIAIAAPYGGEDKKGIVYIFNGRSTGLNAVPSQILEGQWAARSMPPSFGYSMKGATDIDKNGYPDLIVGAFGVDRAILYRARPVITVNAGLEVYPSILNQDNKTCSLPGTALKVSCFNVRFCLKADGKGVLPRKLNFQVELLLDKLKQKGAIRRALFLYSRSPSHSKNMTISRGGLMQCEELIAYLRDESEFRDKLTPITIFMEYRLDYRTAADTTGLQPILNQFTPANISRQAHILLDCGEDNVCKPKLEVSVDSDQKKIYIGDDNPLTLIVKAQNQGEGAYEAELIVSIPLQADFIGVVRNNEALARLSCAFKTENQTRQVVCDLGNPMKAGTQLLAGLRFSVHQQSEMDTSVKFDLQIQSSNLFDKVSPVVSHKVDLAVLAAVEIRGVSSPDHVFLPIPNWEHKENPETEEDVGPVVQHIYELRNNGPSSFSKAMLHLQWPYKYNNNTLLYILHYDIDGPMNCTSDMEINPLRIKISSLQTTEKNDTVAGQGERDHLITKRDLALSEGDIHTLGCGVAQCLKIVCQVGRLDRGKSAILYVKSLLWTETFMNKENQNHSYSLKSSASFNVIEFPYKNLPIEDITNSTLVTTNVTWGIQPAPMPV
T1 chain 2: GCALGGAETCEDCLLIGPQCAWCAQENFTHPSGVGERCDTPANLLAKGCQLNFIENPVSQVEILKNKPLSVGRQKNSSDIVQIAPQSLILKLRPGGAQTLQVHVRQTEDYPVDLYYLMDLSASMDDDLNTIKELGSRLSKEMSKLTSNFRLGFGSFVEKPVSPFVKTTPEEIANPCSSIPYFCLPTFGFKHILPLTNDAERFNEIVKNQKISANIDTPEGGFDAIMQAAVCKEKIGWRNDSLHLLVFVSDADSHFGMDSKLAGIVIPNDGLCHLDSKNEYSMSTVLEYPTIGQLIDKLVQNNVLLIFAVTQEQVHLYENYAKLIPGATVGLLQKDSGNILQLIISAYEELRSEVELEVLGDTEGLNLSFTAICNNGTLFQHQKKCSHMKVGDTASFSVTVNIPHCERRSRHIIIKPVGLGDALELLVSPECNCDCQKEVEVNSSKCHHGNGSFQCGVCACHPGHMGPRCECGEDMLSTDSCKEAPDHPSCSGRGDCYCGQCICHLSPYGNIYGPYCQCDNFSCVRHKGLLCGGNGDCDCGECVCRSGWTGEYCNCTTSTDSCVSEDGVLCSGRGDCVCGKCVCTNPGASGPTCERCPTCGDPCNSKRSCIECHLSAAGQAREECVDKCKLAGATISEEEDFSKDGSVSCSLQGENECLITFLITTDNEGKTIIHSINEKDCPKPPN

T2: integrin αvβ3 (human, UniProt P06756)
T2 chain 1: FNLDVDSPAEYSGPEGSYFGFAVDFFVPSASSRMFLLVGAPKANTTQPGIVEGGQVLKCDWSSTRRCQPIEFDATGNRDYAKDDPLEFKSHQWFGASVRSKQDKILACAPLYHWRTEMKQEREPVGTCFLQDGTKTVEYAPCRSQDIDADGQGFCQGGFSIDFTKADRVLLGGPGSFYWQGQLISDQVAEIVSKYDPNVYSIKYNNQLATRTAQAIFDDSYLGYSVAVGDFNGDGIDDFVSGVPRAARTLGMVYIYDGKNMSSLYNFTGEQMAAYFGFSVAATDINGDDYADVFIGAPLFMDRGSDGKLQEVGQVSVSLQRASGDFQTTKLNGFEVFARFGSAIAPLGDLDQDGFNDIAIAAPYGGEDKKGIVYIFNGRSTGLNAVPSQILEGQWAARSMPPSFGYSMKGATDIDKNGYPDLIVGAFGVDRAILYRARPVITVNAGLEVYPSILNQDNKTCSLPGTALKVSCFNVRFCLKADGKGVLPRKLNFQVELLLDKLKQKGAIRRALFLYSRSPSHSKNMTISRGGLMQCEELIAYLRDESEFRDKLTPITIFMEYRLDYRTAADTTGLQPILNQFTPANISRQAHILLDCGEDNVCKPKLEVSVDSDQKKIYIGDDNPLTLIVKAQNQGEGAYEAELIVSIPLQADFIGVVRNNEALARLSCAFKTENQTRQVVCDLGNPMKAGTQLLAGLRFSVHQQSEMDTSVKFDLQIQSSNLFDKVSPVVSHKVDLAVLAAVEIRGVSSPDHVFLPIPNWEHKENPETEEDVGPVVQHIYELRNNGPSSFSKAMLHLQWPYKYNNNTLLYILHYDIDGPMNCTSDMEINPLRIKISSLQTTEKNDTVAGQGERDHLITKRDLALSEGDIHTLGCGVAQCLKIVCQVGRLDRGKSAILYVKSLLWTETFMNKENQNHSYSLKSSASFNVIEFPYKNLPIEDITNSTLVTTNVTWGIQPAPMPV
T2 chain 2: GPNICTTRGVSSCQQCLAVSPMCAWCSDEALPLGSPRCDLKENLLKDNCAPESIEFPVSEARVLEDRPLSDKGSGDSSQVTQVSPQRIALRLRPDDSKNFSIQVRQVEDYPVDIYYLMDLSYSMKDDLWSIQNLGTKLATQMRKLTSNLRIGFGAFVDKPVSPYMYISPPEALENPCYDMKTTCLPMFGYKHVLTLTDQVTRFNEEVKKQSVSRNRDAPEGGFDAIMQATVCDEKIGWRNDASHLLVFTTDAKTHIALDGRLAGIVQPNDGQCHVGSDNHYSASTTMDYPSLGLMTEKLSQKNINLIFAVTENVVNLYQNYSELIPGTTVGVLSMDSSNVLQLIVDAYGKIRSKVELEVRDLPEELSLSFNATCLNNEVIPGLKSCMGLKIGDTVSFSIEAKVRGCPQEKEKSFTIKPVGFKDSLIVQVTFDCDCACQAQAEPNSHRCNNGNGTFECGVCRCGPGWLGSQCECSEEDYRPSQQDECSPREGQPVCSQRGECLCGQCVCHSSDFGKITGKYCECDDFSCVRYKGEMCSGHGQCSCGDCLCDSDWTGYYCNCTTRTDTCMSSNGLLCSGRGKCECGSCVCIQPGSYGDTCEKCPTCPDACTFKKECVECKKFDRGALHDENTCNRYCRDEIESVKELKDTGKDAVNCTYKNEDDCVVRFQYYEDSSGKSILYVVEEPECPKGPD

T3: integrin αvβ8 (human, UniProt P06756)
T3 chain 1: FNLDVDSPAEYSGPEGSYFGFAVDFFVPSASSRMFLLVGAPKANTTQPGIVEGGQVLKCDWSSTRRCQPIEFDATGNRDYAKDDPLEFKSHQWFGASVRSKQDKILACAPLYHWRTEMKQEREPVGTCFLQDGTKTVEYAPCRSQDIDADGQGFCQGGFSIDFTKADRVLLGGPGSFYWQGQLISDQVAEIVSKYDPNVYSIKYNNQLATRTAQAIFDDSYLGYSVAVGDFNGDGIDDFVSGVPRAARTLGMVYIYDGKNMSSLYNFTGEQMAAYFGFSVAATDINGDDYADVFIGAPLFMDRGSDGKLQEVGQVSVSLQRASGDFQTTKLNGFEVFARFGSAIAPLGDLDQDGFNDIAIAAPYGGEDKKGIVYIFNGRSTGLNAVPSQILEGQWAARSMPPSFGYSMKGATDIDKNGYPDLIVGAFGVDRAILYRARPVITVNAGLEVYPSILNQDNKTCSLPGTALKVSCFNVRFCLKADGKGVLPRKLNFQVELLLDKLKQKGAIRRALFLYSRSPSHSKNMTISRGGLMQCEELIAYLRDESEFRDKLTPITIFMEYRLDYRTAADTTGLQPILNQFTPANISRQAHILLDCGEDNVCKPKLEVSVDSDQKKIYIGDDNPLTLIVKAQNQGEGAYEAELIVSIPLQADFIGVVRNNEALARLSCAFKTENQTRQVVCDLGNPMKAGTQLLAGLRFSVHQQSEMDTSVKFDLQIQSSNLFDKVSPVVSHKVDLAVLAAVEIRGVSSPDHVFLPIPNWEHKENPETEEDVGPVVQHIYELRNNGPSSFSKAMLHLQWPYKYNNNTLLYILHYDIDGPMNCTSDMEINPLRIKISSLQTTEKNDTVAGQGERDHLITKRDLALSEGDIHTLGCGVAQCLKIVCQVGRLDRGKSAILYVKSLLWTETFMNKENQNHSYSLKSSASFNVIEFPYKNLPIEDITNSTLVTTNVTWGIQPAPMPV
T3 chain 2: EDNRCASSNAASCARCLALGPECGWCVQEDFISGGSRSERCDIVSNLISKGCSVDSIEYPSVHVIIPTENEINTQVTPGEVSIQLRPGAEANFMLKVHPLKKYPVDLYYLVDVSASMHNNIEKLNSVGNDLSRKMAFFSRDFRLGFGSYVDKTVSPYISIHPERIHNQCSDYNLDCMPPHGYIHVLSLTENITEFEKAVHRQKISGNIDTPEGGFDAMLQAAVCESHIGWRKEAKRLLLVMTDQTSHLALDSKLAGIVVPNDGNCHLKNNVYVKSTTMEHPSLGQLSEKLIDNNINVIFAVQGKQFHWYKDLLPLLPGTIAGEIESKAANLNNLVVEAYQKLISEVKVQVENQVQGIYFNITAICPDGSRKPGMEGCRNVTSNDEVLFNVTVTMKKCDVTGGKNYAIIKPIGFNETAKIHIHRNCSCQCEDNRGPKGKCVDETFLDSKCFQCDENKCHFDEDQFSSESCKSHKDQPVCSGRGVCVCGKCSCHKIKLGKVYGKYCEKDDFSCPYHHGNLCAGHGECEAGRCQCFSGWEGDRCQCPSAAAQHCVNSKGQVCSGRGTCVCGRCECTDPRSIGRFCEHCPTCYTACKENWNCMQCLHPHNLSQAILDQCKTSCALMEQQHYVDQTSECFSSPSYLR


Tests used:
Assay in all cases: competition
integrin αvβ6 [1] = target: T1, integrin αvβ6
integrin αvβ3 = target: T2, integrin αvβ3
integrin αvβ8 [2] = target: T3, integrin αvβ8
integrin αvβ6 [3] = target: T1, integrin αvβ6
integrin αvβ8 [4] = target: T3, integrin αvβ8

| Binder | IC50 (integrin αvβ6 [1]) | IC50 (integrin αvβ3) | IC50 (integrin αvβ8 [2]) | IC50 (integrin αvβ6 [3]) | IC50 (integrin αvβ8 [4]) |
| --- | --- | --- | --- | --- | --- |
| cyclo(GLRVDL[dP][NMeK]([Ahx-BDPFL])) [Compound 11 (Table 3) c(GLRVDLp(NMe)K)-Ahx-BDPFL] | > 10000 nM | > 10000 nM | 1120 nM | – | – |
| cyclo(RGDL[dP]PAL) (SMILES CC(C)C[C@@H]1NC(=O)[C@H](C)NC(=O)[C@@H]2CCCN2C(=O)[C@H]2CCCN2C(=O)[C@H](CC(C)C)NC(=O)[C@H](CC(=O)O)NC(=O)CNC(=O)[C@H](CCCNC(=N)N)NC1=O) [Compound 7] | – | – | – | 32 nM | 1.31 nM |
| cyclo(RGDL[dP]PAL) (SMILES CC(C)C[C@@H]1NC(=O)[C@H](C)NC(=O)[C@@H]2CCCN2C(=O)[C@H]2CCCN2C(=O)[C@H](CC(C)C)NC(=O)[C@H](CC(=O)O)NC(=O)CNC(=O)[C@H](CCCNC(=N)N)NC1=O) [Compound 1] | – | – | – | 84 nM | 1.4 nM |
| cyclo(RGDL[dP]PAY) (SMILES CC(C)C[C@@H]1NC(=O)[C@H](CC(=O)O)NC(=O)CNC(=O)[C@H](CCCNC(=N)N)NC(=O)[C@H](Cc2ccc(O)cc2)NC(=O)[C@H](C)NC(=O)[C@@H]2CCCN2C(=O)[C@H]2CCCN2C1=O) [Compound 4] | – | – | – | 156 nM | 1.1 nM |
| cyclo(RGDL[dNMeF]PAL) (SMILES CC(C)C[C@@H]1NC(=O)[C@H](C)NC(=O)[C@@H]2CCCN2C(=O)[C@@H](Cc2ccccc2)N(C)C(=O)[C@H](CC(C)C)NC(=O)[C@H](CC(=O)O)NC(=O)CNC(=O)[C@H](CCCNC(=N)N)NC1=O) [Compound 6] | – | – | – | 139 nM | 9.4 nM |
| cyclo(RGDL[dP]PAA) (SMILES CC(C)C[C@@H]1NC(=O)[C@H](CC(=O)O)NC(=O)CNC(=O)[C@H](CCCNC(=N)N)NC(=O)[C@H](C)NC(=O)[C@H](C)NC(=O)[C@@H]2CCCN2C(=O)[C@H]2CCCN2C1=O) [Compound 10 (Table 1)] | – | – | – | 114 nM | 8.1 nM |
| cyclo(RGDL[dP][Pro‑4‑NH‑hexyne]GL) (reading uncertain) [Compound 12 (Table 1)] | – | – | – | 217 nM | 8.8 nM |
| cyclo(RGDL[dP]PAH) (SMILES CC(C)C[C@@H]1NC(=O)[C@H](CC(=O)O)NC(=O)CNC(=O)[C@H](CCCNC(=N)N)NC(=O)[C@H](Cc2c[nH]cn2)NC(=O)[C@H](C)NC(=O)[C@@H]2CCCN2C(=O)[C@H]2CCCN2C1=O) [Compound 5] | – | – | – | 171 nM | 2.2 nM |
| cyclo(RGD[dF]K) (also: Ahx-BDPFL conjugate, attachment site not given here) [Compound 13 (Table 3) c(RGDfK)-Ahx-BDPFL] | 7.8 nM | 2.55 nM | 258 nM | – | – |
| cyclo(RGDL[dP][N‑Me‑Lys‑pentyne]GL) [Compound 11 (Table 1)] | – | – | – | 41 nM | 1.7 nM |
| cyclo(RGDL[dP]PAF) [Compound 13 (Table 1)] | – | – | – | 81 nM | 1.83 nM |
| cyclo(RGDL[dP]PSL) (SMILES CC(C)C[C@@H]1NC(=O)[C@H](CO)NC(=O)[C@@H]2CCCN2C(=O)[C@H]2CCCN2C(=O)[C@H](CC(C)C)NC(=O)[C@H](CC(=O)O)NC(=O)CNC(=O)[C@H](CCCNC(=N)N)NC1=O) [Compound 3] | – | – | – | 187 nM | 12.5 nM |
| cyclo(RGDL[dP][NMeK]([Ahx-Ahx-BDPFL])GL) [Compound 9c (9-Ahx-Ahx-BDPFL)] | 64 nM | 500 nM | 1.52 nM | – | – |
